B1: PCDHGA10 (parent)
chain: FGIEIEVTDINDNAPKFQAENLDV
B2: STEAP1 (parent)
chain: WMLTRKQFGLLSFFFAVLHAIYSL

Variants of: B1
Test: protein stability index of a GFP-peptide fusion (GPS, HEK-293T) (PSI 1-6); higher = more stable
Settings: c terminus: a fixed tail appended
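Further: lentivirally expressed fusions sorted by FACS into six bins by GFP to DsRed ratio, PSI derived from sequencing read proportions per bin multiplied by bin number.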

| Variant | protein stability index |
| --- | --- |
| FGIEIEVTDINDNAPKWQAENLDV [F17W] | 2.52 |
| FGIEIEVTDINDNAPKLQAENLDV [F17L] | 3.33 |
| FGIEIEVTDINDNAPKIQAENLDV [F17I] | 3.37 |
| FGIEIEVTDINDNAPKMQAENLDV [F17M] | 3.58 |
| FGIEIEVTDINDNAPKDQAENLDV [F17D] | 4.36 |
| FGIEIEVTKINDNAPKFQAENLDV [D9K] | 2.45 |
| FTIEIEVTDINDNAPKFQAENLDV [G2T] | 1.78 |
| FDIEIEVTDINDNAPKFQAENLDV [G2D] | 2.72 |
| FMIEIEVTDINDNAPKFQAENLDV [G2M] | 1.9 |
| FEIEIEVTDINDNAPKFQAENLDV [G2E] | 1.88 |
| FVIEIEVTDINDNAPKFQAENLDV [G2V] | 1.64 |
| FGIEIEVTDINDNASKFQAENLDV [P15S] | 3.14 |
| FGIEIEVTDINDNFPKFQAENLDV [A14F] | 2.35 |
| FGIEIEVTDINDNVPKFQAENLDV [A14V] | 3.4 |
| FGIEIEVTDINDNCPKFQAENLDV [A14C] | 2.46 |
| FGIEIEMTDINDNAPKFQAENLDV [V7M] | 3.18 |
| FGIEIEQTDINDNAPKFQAENLDV [V7Q] | 4.8 |
| FGIEIEYTDINDNAPKFQAENLDV [V7Y] | 2.93 |
| FGIEIETTDINDNAPKFQAENLDV [V7T] | 4.45 |
| FGIEIEVTDINDNAPKFQQENLDV [A19Q] | 3.32 |

| Variant | protein stability index |
| --- | --- |
| FGISIEVTDINDNAPKFQAENLDV [E4S] | 2.5 |
| FGIEIEVTDINANAPKFQAENLDV [D12A] | 2.28 |
| FGIEIEVTDINHNAPKFQAENLDV [D12H] | 2.16 |
| FGIEIEVTDINPNAPKFQAENLDV [D12P] | 2.42 |
| FGIEIEVTDINGNAPKFQAENLDV [D12G] | 2.58 |
| FGIEIEVKDINDNAPKFQAENLDV [T8K] | 3.33 |
| FGIEIEVGDINDNAPKFQAENLDV [T8G] | 3.27 |
| FGIEAEVTDINDNAPKFQAENLDV [I5A] | 4.42 |
| FGIEHEVTDINDNAPKFQAENLDV [I5H] | 4.91 |
| FGIEICVTDINDNAPKFQAENLDV [E6C] | 1.58 |
| FGIEIDVTDINDNAPKFQAENLDV [E6D] | 3.62 |
| FGIEIYVTDINDNAPKFQAENLDV [E6Y] | 2.23 |
| FGIEIKVTDINDNAPKFQAENLDV [E6K] | 2.77 |
| FGIEIHVTDINDNAPKFQAENLDV [E6H] | 2.19 |
| FGIEIEVTDINDNAPKFQAENLTV [D23T] | 1.95 |
| FGIEIEVTDINDNAPKFQAENLWV [D23W] | 1.46 |
| FGIEIEVTDINDNAPKFQAENLYV [D23Y] | 1.69 |
| FGIEIEVTDINDNAPKFQAENLPV [D23P] | 2.32 |
| FGIEIEVTDKNDNAPKFQAENLDV [I10K] | 4.61 |
| FGIEIEVTDMNDNAPKFQAENLDV [I10M] | 3.28 |

| Variant | protein stability index |
| --- | --- |
| FGIEIEVTDNNDNAPKFQAENLDV [I10N] | 4.14 |
| FGMEIEVTDINDNAPKFQAENLDV [I3M] | 3.96 |
| FGYEIEVTDINDNAPKFQAENLDV [I3Y] | 3.84 |
| FGIEIEVTDINDNAPKFQAFNLDV [E20F] | 2.51 |
| FGIEIEVTDINDNAPKFQAYNLDV [E20Y] | 2.59 |
| FGIEIEVTDINDNAPKFQAEDLDV [N21D] | 3.65 |
| FGIEIEVTDIVDNAPKFQAENLDV [N11V] | 2.3 |
| FGIEIEVTDINDDAPKFQAENLDV [N13D] | 3.43 |
| FGIEIEVTDINDQAPKFQAENLDV [N13Q] | 3.21 |
| FGIEIEVTDINDLAPKFQAENLDV [N13L] | 1.91 |
| FGIEIEVTDINDNAPKFEAENLDV [Q18E] | 3.33 |
| FGIEIEVTDINDNAPKFCAENLDV [Q18C] | 2.44 |
| YGIEIEVTDINDNAPKFQAENLDV [F1Y] | 3.52 |
| FGIEIEVTDINDNAPKFQAENDDV [L22D] | 4.21 |
| FGIEIEVTDINDNAPKFQAENQDV [L22Q] | 3.71 |
| FGIEIEVTDINDNAPKFQAENKDV [L22K] | 4.02 |
| FGIEIEVTDINDNAPKFQAENWDV [L22W] | 2.53 |
| FGIEIEVTDINDNAPKFQAENGDV [L22G] | 3.97 |
| FGIEIEVTDINDNAPKFQAENFDV [L22F] | 2.66 |

Variants of: B2
Test: as above
Settings: c terminus: a fixed tail appended

| Variant | protein stability index |
| --- | --- |
| WMLTRKQFGLLSFFFAVLHYIYSL [A20Y] | 2.1 |
| WMLTRKQFGLLSFFFAVLHFIYSL [A20F] | 2.8 |
| WMLTRKQFGLLSFFFAVLHHIYSL [A20H] | 1.62 |
| WMLTRKQFGLLSFFFAVLHCIYSL [A20C] | 2.18 |
| WMLTRKQFGLLSFFFAVLHTIYSL [A20T] | 1.36 |
| WMLTRKQFGLLSFFFAVLHWIYSL [A20W] | 1.79 |
| WMLTRKQFGLLSFFFAVLHEIYSL [A20E] | 2.56 |
| WMLTRKQFGLLSFFFAVLHQIYSL [A20Q] | 2.69 |
| WMLTRKQFGLLSFFFAVLHRIYSL [A20R] | 1.73 |
| WMLTRKQFGLLSFFFAVLHPIYSL [A20P] | 2.51 |
| WMLTRKQFGLLSFFFAVLHDIYSL [A20D] | 2.62 |
| WMLTRKQFGLLSFFFAVLHIIYSL [A20I] | 1.88 |
| WMLTRKQFGLLSFFFAVLHMIYSL [A20M] | 1.66 |
| WMLTRKQFGLLSFFFAVLHLIYSL [A20L] | 2.46 |
| WMLTRKQFGLLSFFFAVLHGIYSL [A20G] | 2.13 |
| WMLTRKQFGLLSFFFAVLHKIYSL [A20K] | 1.78 |
| WMLTRKQFGLLSFFFAVLHSIYSL [A20S] | 2.41 |
| WMLTRKQFGLLSFFFAVLHNIYSL [A20N] | 2.02 |

| Variant | protein stability index |
| --- | --- |
| WMLTRKQFGLLSFFFAVLHVIYSL [A20V] | 1.08 |
| WMLTRKQFGLLSFFFAVLHATYSL [I21T] | 1.05 |
| WMLTRKQFGLLSFFFAVLHARYSL [I21R] | 3.01 |
| WMLTRKQFGLLSFFFAVLHAEYSL [I21E] | 4.75 |
| WMLTRKQFGLLSFFFAVLHAKYSL [I21K] | 2.41 |
| WMLTRKQFGLLSFFFAVLHANYSL [I21N] | 2.81 |
| WMLTRKQFGLLSFFFAVLHAHYSL [I21H] | 3.26 |
| WMLTRKQFGLLSFFFAVLHAWYSL [I21W] | 1.63 |
| WMLTRKQFGLLSFFFAVLHAVYSL [I21V] | 2.18 |
| WMLTRKQFGLLSFFFAVLHASYSL [I21S] | 2.16 |
| WMLTRKQFGLLSFFFAVLHAPYSL [I21P] | 3.02 |
| WMLTRKQFGLLSFFFAVLHAYYSL [I21Y] | 1.95 |
| WMLTRKQFGLLSFFFAVLHAGYSL [I21G] | 2.17 |
| WMLTRKQFGLLSFFFAVLHADYSL [I21D] | 3.17 |
| WMLTRKQFGLLSFFFAVLHAFYSL [I21F] | 2.26 |
| WMLTRKQFGLLSFFFAVLHACYSL [I21C] | 2.21 |
| WMLTRKQFGLLSFFFAVLHAMYSL [I21M] | 1.66 |
